According to patent US20230272086A1 (CHIA TAI TIANQING PHARMACEUTICAL GROUP, published 2023):
Substitutions are numbered along the chain they refer to. Each block holds one binder with its values, some of them ahead of it.

Experiments:
[1] = target: T1, cynomolgus monkey ST2 antigen (Cyno-ST2-his, Sino biological, 90915-C08H) (cynomolgus monkey, UniProt Q01638 19-328 (human entry)); test: ELISA, plate coated with Cyno-ST2-his
T1 construct: Bought protein; not shown: his tag
T1 chain: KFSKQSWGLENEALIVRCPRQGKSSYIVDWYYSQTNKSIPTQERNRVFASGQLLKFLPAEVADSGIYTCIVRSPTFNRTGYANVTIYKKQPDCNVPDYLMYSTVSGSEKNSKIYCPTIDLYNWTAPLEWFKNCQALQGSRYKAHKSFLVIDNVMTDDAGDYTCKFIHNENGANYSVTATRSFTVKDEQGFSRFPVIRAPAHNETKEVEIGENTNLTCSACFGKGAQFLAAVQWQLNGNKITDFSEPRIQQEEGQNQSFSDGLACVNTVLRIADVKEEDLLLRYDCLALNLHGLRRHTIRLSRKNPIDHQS
Method: ST2 binding screening and analysis of antibodies were performed by ELISA using hST2-ECD-mFc (for assays of chimeric and humanized antibodies), hST2-ECD-hFc protein (for assays of hybridoma antibodies) and Cyno-ST2-his (Sino biological, 90915-C08H) as antigens. A high-adsorption 96-well plate (Costar, 9018) was coated with 2 µg/mL hST2-ECD-mFc or Cyno-ST2-his antigen at 100 µL/well and incubated overnight at 4° C. After the antigen not adsorbed was well washed off, the non-specific binding sites were blocked with a blocking buffer (PBS containing 2% bovine serum albumin). After the plate was washed three times with a washing buffer (PBS containing 0.05% (v/v) Tween 20), the anti-ST2 antibodies (serially diluted 3-fold from an initial concentration of 10 nM to 8 concentrations: 3.333 nM, 1.111 nM, 0.370 nM, 0.123 nM, 0.041 nM, 0.014 nM, 0.005 nM, and 0.002 nM) were added at 100 µL/well, and the plate was incubated at room temperature for 1 h. After the plate was washed with the washing buffer, a horseradish peroxidase (HRP)-conjugated secondary antibody was added, and the plate was incubated for another 60 min. After the plate was washed with the washing buffer, the substrate TMB solution (Thermo, 00-4201-56) was added at 100 µL/well, and the plate was incubated at room temperature for 2 min. A stop solution (2 N H₂SO₄) was added at 100 µL/well to terminate the reactions. Colorimetric signals were generated and read at 450 nm using a microplate reader (PE, Envision). The data were analyzed using GraphPad Prism5, and the EC₅₀ values were calculated.

[2] = target: T2, human ST2 (hST2, Interleukin-1 receptor-like 1 isoform A) on cells (human, UniProt Q01638 19-556); test: flow cytometry on HEK293T-hST2-NFκB-Luciferase cells
T2 construct: the same id is used for hST2 naturally expressed on KU812 cells and on human CD4+ T cells; also called HEK293T-hST2-NFκB-Luciferase; KU812-NFκB-Luciferase
T2 sequence: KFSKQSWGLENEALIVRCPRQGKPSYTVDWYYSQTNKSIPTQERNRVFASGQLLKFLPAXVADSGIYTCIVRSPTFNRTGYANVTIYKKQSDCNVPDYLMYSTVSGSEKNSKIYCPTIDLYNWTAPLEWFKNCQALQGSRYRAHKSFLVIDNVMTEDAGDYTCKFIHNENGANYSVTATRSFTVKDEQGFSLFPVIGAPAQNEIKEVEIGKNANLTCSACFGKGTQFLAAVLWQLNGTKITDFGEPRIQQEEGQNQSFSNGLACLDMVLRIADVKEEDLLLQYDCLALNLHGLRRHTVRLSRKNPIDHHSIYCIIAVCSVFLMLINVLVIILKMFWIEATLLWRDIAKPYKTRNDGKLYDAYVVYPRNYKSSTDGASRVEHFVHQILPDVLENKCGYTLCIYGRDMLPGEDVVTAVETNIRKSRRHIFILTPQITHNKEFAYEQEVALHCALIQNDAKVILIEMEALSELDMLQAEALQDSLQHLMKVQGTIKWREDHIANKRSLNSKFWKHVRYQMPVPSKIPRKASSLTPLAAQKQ
Method: The binding capacity of the anti-ST2 antibodies to hST2-overexpressing cell lines and cyno-ST2-overexpressing cell lines was analyzed using an FACS-based method through binding assays with the hST2 (SEQ ID NO:1)-overexpressing HEK293T cell line (HEK293T-hST2-NFκB-Luciferase) and the cynomolgus monkey ST2 (SEQ ID NO: 10)-overexpressing HEK293T cell line (HEK293T-Cyno-ST2-NFKB-Luciferase). HEK293 cells were transfected with the pLenti6.3- hST2 plasmid and the pLenti6.3-NFκB-luciferasae plasmid using a lentiviral transfection system to construct the cell line HEK293T-hST2-NFκB-Luciferase. HEK293T cells were transfected with the pLenti6.3-cynoST2 plasmid and the pLenti6.3-NFκB-luciferasae plasmid to construct the cell line HEK293T-Cyno-ST2-NFκB-Luciferase.
3 × 10⁵ HEK293T-hST2-NFκB-Luciferase or HEK293T-Cyno-ST2-NFκB-Luciferase cells were added to a 96-well culture plate. Serially diluted anti-ST2 antibodies (serially diluted 4-fold from an initial concentration of 667 nM to 8 concentrations in binding assays with the HEK293T-hST2-NFκB-Luciferase cells; serially diluted 4-fold from an initial concentration of 400 nM to 8 concentrations in binding assays with the HEK293T-Cyno-ST2-NFκB-Luciferase cells) were added to the cell suspensions. After the plate was incubated at room temperature for 60 min, the cells were washed 3 times with PBS. […] The cells were washed 3 times with PBS and resuspended in 100 µ1L of PBS, and then the fluorescence signals were analyzed and detected using a flow cytometer (BD, Accuri C6). The binding capacity of the anti-ST2 antibodies to hST2 and cyno-ST2 on the cell line surfaces was measured in terms of the mean fluorescence intensity (MFI) of staining. The data were analyzed using GraphPad Prism5, and the EC₅₀ values were calculated. The EC₅₀ values for the binding of the anti-ST2 chimeric antibodies to hST2 and Cyno-ST2 at the cellular level are shown in Table 8 and FIGS. 7-8.

EC50 [1]: 0.191 nM | EC50 [2]: 0.265 nM
B1: Chimeric 7D1 (antibody, human IgG2, kappa, V domains shown)
VH: QVQLQQSGAELVRPGASVTLSCKASGYTFTDYEMHWVKQTPVHGLDWIGTIDPETGDTAYNQKFKGRATLTADKSSSTAYMELSSLTSEDSAVYYCTRYSYTNSPYGMDYWGQGTSVTVSS
VL: DVVMTQTPKFLLVSAGDRVTITCKASQSVSNDVAWYQQKPGQSPKLLIYYASNRYTGVPDRFTGSGYGTDFTFTINTVQAEDLAVYFCQQDYSSPYTFGGGTKLEIKR
notes: also called xi7D1

EC50 [1]: 0.129 nM | EC50 [2]: 0.589 nM
B2: RG6149 (antibody Ab2 in CN104334582, prepared in-house) (antibody, human IgG2, kappa, V domains shown)
VH: EVQLVQSGAEVKKPGESLKISCKGSGYSFTNYWIGWVRQMPGKGLEWMGIIYPGNSDTRFSPSFQGQVTISADKSITTAYLQWSSLKASDTAMYYCARHGTSSDYYGLDVWGQGTTVTVSS
VL: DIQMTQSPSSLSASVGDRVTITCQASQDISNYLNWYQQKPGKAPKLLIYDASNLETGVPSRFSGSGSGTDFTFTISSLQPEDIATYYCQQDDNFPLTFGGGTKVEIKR
notes: Control anti-ST2 antibody

EC50 [1]: 0.22 nM | EC50 [2]: 0.224 nM
B3: Chimeric 17E2 (antibody, human IgG2, kappa, V domains shown)
VH: QVQLQQSGAELVRPGASVTLSCKASGYTFTDYEMHWVKQTPVLGLEWIGAIDPETGDTAYNQKFKGKATLTADKSSSTAYMELSSLASEDSAVYYCIRVDSNYDYFDYWGQDTTLTVSS
VL: DIVLTQSPPILSASPGEKVTMTCRASSSVSYMHWYQQKPGSSPKPWIYDTSNLASGVPARFSGSGSGTSYSLTISRVEAEDAATYYCQQWSSNPLTFGAGTKLELKR
notes: also called xi17E2

EC50 [1]: 0.163 nM | EC50 [2]: 0.298 nM
B4: Chimeric 31C8 (antibody, human IgG2, kappa, V domains shown)
VH: QVQLQQSGPELVRPGASVTLSCKASGYIFIDSEMHWVKQTPVHGLEWIGAIDPETGDTVYNQKFKGKATLTADKSSSTASMELSSLTSEDSAVYYCTGSTTDYYFAYWGQGTTLTVSS
VL: DIVMTQAAFSNPVTLGTSASISCRSSKSLLHSNGIIYLYWYLQKPGQSPQLLIYQMSNLASGVPDRFSSSGSGTDFTLRISRVEAEDVGVYYCAQNLELPFTFGSGTKLEIKR
notes: also called xi31C8

EC50 [1]: 0.43 nM | EC50 [2]: 0.349 nM
B5: Chimeric 3C6 (antibody, human IgG2, kappa, V domains shown)
VH: QVQLQQSGAEVVRPGASVTLSCKASDYTITDYEMHWVKQTPVHGLEWIGAIDPETGDTAYSQNFKGKATLTADESSSTAYMELSSLTSEDSAVYYCSRSATDYYFASWGQGTTLTVSS
VL: B4 VL with F9I, I21M, I36T, Q47H, R79K
notes: also called xi3C6

EC50 [1]: 0.164 nM | EC50 [2]: 0.343 nM
B6: Chimeric 8F4 (antibody, human IgG2, kappa, V domains shown)
VH: B4 VH with P9A, Y27H, I30T, S32Y, H35Q, I51F, V59A, S80Y, T97S, T113S
VL: B4 VL with I2V, A7T
notes: also called xi8F4

EC50 [1]: 0.946 nM
B7: Chimeric 26A1 (antibody, human IgG2, kappa, V domains shown)
VH: B4 VH with P9A, G26D, I30T, M34I, P41L, V59A, S80Y, D90G, T97S, Y103C
VL: B4 VL
notes: also called xi26A1
